From paper PMC12698293

Biological target: LgBiT (large BiT fragment of split NanoLuc) secreted from GCN4-LgBiT receiver cells
Experiment: split reporter

Substance: scFv-SmBiT fusion secreted by sender^high cells (anti-GCN4 scFv, HA tag, G4Sx4 linker, high-affinity SmBiT peptide)
- fold signal turn-on (co-culture against cells cultured individually): > 130 fold
